We go through six molecules from PMC7156385, “Proper chromosome alignment depends on BRCA2 phosphorylation by PLK1” (Nature Communications, 2020).

[ ]: non-standard residue; d: D form. pT = C[C@@H](OP(=O)(O)O)[C@H](N)C(=O)O; pS = N[C@@H](COP(=O)(O)O)C(=O)O

Assay [1] addresses BRCA2_(190-284) phosphorylated by PLK1 (human) (UniProt P51587). The assay is described as follows: ITC; PLK1 PBD (326-603) and BRCA2 peptides; 50 mM Tris-HCl pH 8.0, 150 mM NaCl, 5 mM β-ME, 293 K, VP-ITC, one-site binding model. On the technique in general: ITC needs no label: the signal is the heat of the interaction.
Assay [2] addresses endogenous BUBR1 (human (endogenous in DLD1)) (UniProt O60566). The assay is described as follows: co-IP; immunoprecipitation of endogenous BUBR1 with mouse anti-BUBR1 antibody from nocodazole-treated DLD1 BRCA2-/- stable clones expressing BRCA2 WT or variants; extraction buffer A, washes up to 500 mM NaCl; western blot for PP2A-C and PLK1. On the technique in general: In western blotting, separated proteins are transferred to a membrane and probed.

The target in assay [3] is purified 2xMBP-BRCA2_(1-250) T207A (human) (UniProt P51587).
Assay [4] deals with T1, PLK1 Polo-box domain (amino acid 326 to amino acid 603) (UniProt P53350 326-603).
T1 construct: PLK1, Polo-box domain, amino acids 326 to 603, amplified from Addgene pTK24; also called PLK1PBD; PLK1 PBD (326-603); source: E. coli Tuner pLacI pRare, purified (His-Trap, SUMO protease, Ni-NTA, Superdex)
Put plainly: ITC; PLK1 PBD (326-603) and BRCA2 peptides; 50 mM Tris-HCl pH 8.0, 150 mM NaCl, 5 mM β-ME, 293 K, VP-ITC, one-site binding model. Conditions: both partners purified.

For a further assay, the target named is T2, recombinant PLK1 (UniProt P53350 1-603).
T2 construct: Polo-like kinase 1 (PLK1), cDNA from Addgene pTK24 cloned into pFast-Bac HT; also called 6xHis-PLK1; PLK1-WT; source: Sf9, purified (Ni-NTA, Capto S) or bought: Abcam
The assay is described as follows: pull-down; in vitro kinase reaction (0.2 µg PLK1 or PLK1-KD, 0.5 µg 2xMBP-BRCA2_(1-250), kinase buffer with 250 µM ATP or without ATP, 30 min at 30 °C) followed by amylose beads for 1 h at 4 °C, washes with 0.5% NP-40 and 0.1% Triton X-100, elution with 10 mM maltose; western blot. Conditions: both partners purified.

T1 sequence (P53350 326-603): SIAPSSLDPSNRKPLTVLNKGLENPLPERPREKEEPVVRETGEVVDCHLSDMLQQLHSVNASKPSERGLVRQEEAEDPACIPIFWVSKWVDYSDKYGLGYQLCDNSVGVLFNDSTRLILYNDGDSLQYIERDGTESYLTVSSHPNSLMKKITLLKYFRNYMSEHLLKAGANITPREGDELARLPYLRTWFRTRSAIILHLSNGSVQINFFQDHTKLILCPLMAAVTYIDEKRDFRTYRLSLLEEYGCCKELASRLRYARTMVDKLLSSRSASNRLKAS
T2 sequence (P53350 whole entry): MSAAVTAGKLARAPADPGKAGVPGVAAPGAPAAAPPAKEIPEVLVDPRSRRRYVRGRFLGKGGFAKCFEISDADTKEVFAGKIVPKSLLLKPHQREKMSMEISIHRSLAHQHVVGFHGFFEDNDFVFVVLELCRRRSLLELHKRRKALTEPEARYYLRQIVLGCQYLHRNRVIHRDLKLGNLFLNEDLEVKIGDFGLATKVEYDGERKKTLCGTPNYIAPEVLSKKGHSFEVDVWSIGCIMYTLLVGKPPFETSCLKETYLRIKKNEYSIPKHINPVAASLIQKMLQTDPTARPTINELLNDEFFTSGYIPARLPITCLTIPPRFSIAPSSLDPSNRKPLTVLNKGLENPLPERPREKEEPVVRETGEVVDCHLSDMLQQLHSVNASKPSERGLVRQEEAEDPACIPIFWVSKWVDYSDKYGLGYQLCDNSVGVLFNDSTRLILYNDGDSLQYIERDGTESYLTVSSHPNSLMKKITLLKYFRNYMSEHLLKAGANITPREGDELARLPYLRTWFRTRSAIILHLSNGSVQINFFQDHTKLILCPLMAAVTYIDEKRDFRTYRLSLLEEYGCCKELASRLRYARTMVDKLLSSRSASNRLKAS
Chain of BRCA2_(190-284) phosphorylated by PLK1 (human) (P51587 190-284): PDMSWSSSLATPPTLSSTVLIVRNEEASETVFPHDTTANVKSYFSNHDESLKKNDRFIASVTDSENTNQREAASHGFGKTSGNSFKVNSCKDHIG
Chain of endogenous BUBR1 (human (endogenous in DLD1)) (O60566 whole entry): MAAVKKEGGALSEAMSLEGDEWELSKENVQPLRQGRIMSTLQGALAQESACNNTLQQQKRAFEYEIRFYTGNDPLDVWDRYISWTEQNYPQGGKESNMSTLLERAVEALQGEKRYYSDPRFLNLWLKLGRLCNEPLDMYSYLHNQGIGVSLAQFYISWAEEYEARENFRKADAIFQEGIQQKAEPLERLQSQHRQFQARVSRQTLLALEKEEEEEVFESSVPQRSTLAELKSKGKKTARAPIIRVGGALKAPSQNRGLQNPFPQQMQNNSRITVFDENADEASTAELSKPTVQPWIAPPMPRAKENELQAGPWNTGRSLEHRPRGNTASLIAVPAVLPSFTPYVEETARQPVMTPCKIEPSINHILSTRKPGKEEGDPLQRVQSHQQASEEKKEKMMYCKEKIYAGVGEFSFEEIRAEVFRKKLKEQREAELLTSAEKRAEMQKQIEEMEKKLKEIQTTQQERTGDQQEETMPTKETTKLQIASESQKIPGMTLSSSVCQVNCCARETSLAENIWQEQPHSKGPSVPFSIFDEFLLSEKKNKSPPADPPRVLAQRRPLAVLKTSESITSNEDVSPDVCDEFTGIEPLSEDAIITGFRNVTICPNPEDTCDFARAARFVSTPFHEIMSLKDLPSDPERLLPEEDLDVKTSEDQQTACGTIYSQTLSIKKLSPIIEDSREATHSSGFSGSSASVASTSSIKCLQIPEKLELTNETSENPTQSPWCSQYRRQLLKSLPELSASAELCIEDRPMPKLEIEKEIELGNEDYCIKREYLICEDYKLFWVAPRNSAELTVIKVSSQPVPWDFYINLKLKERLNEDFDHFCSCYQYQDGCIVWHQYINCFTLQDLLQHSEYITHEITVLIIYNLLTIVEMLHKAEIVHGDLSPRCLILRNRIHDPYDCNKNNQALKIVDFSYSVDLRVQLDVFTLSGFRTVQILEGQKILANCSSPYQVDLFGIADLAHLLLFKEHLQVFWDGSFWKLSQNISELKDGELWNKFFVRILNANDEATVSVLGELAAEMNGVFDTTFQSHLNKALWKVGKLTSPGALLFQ

A word on the Kd: it is the constant that tells how readily two partners part at equilibrium. A high value points to a looser complex. In the case of “PLK1 Polo-box domain (amino acid 326 to amino acid 603) (from UniProt P53350 326-603) (domain or fragment)”, in assay [1], the Kd was found to be 140 nM.

In turn, “PP2A (detected by its catalytic subunit, PP2AC) (from UniProt P67775 1-309) (cell line)” gave a reduction of PP2A co-immunoprecipitated with BUBR1 in BRCA2-T207A cells against BRCA2 WT cells in assay [2] of 30%.

Turning to “recombinant PLK1 (from UniProt P53350 1-603) (enzyme)”, the fold decrease in in vitro kinase assay: phosphorylation of 2xMBP-BRCA2 (1-250) by recombinant PLK1 (32P), T207A against WT in assay [3] was 2 fold.

B1: BRCA2 17 aa peptide containing pT207 (194WSSSLATPPTLSS{pT}VLI210) (peptide)
peptide: Ac-WSSSLATPPTLSS[pT]VLI-NH2
SMILES: CC[C@H](C)[C@H](NC(=O)[C@H](CC(C)C)NC(=O)[C@@H](NC(=O)[C@@H](NC(=O)[C@H](CO)NC(=O)[C@H](CO)NC(=O)[C@H](CC(C)C)NC(=O)[C@@H](NC(=O)[C@@H]1CCCN1C(=O)[C@@H]1CCCN1C(=O)[C@@H](NC(=O)[C@H](C)NC(=O)[C@H](CC(C)C)NC(=O)[C@H](CO)NC(=O)[C@H](CO)NC(=O)[C@H](CO)NC(=O)[C@H](Cc1c[nH]c2ccccc12)NC(C)=O)[C@@H](C)O)[C@@H](C)O)[C@@H](C)OP(=O)(O)O)C(C)C)C(N)=O
notes: BRCA2, human, residues 194-210, T207 phosphorylated; Used for ITC and for the crystal; also called pT207 peptide; T207 phosphorylated peptide; source: synthetic peptide
In turn, B1 had a Kd in assay [4] of 90 ± 10 nM.

B2: BRCA2 peptide containing pS197 (peptide)
chain: Ac-DMSWSS[pS]LAT-NH2
SMILES: CSCC[C@H](NC(=O)[C@H](CC(=O)O)NC(C)=O)C(=O)N[C@@H](CO)C(=O)N[C@@H](Cc1c[nH]c2ccccc12)C(=O)N[C@@H](CO)C(=O)N[C@@H](CO)C(=O)N[C@@H](COP(=O)(O)O)C(=O)N[C@@H](CC(C)C)C(=O)N[C@@H](C)C(=O)N[C@H](C(N)=O)[C@@H](C)O
On to B2, for which, in assay [4], the Kd was determined as 17000 ± 2000 nM.

B3: purified 2xMBP-BRCA2_(1-250) WT (domain or fragment, human, UniProt P51587 1-250, looked up)
chain: MPIGSKERPTFFEIFKTRCNKADLGPISLNWFEELSSEAPPYNSEPAEESEHKNNNYEPNLFKTPQRKPSYNQLASTPIIFKEQGLTLPLYQSPVKELDKFKLDLGRNVPNSRHKSLRTVKTKMDQADDVSCPLLNSCLSESPVVLQCTHVTPQRDKSVVCGSLFHTPKFVKGRQTPKHISESLGAEVDPDMSWSSSLATPPTLSSTVLIVRNEEASETVFPHDTTANVKSYFSNHDESLKKNDRFIASV
notes: BRCA2, human, amino acids 1 to 250; also called PLK1-phosphorylated BRCA2_(1-250); source: HEK293T, transfected, purified (amylose resin, Bio-Rex 70)
For the molecule B3, the binding result in the assay with recombinant PLK1 is on record as “binds”.
